This experiment concerns the target HLA-A*02 (human). Description: UV-exchange b2m ELISA.
Molecule ALQEELTEL returned a peptide exchange yield of 50 to 75%.
The molecule FVDPNTQEKV showed a peptide exchange yield of 20 to 49%.
The figure for ALFDSLRHV is 50 to 75%; for ILFHGVFYA it is 50 to 75%; for SISDNVWEV it is 50 to 75%.
As to SQIPAQPSV, the peptide exchange yield was 20 to 49%.
The figure for FLVDGSYSI is 50 to 75%; for YLLPLLPAL it is 50 to 75%; for ALFAPLVHL it is 50 to 75%.
Molecule ILAPFSVDL displayed a peptide exchange yield of 50 to 75%.
Regarding TVFTDHMLTV, the peptide exchange yield was 20 to 49%.
The figure for RLMEENWNA is 50 to 75%; for VLNPLITAV it is 50 to 75%.
The figure for SLADTNSLAVV is 50 to 75%; for QVIEDSTGV it is 20 to 49%.
In turn, ALSPSYLTV showed a peptide exchange yield of 50 to 75%.
As for AMIEEVFEA, the figure is 20 to 49%; as for SLFPDSLIV, 20 to 49%.
As for LLYPEPWSV, the figure is greater than 75%.
As for AIQDEIRSV, the figure is 50 to 75%; as for HLLEGSVGV, 50 to 75%.
On to SLATKIVEA, for which the peptide exchange yield lay within 50 to 75%.
The figure for YTLREVDTV is 20 to 49%; for AIVKEIVNI it is 20 to 49%; for VQLDSIEDLEV it is 50 to 75%.
KLIFSVEAV: the peptide exchange yield was in the range of 50 to 75%.
In turn, TLDEKVAEL showed a peptide exchange yield of 50 to 75%.
The figure for SLPNGKPVSV is 50 to 75%; for ILDHEVPSL it is 50 to 75%; for ALMAMLVYV it is 20 to 49%.
As for ALNIATHVL, the figure is 50 to 75%; as for KLEENGDLYL, greater than 75%; as for VLHSKFWVV, 50 to 75%.
As for FLHDEKEGIYI, the figure is 50 to 75%.
In turn, SLFETAWEA yielded a peptide exchange yield of 50 to 75%.
The figure for FLGPRIIGL is 50 to 75%; for ILLDLTDNRL it is 50 to 75%; for SLFSDEFKV it is 50 to 75%.
Molecule YLDLSHNQL displayed a peptide exchange yield of 50 to 75%.
LLDSVSRL: the peptide exchange yield was less than 20%.
GLSQITNQL showed a peptide exchange yield of 50 to 75%.
As for SLSNRLYYL, the figure is 50 to 75%; as for YIKTELISV, 50 to 75%.
With YLLDPSITL, the peptide exchange yield lay within 50 to 75%.
As for ALNPELVQA, the figure is 20 to 49%; as for KLMPGTYTL, greater than 75%.
As for FLLATEVVTV, the figure is greater than 75%; as for FLLPFSTVYL, 50 to 75%.
Regarding GLLPLLHRA, the peptide exchange yield is greater than 75%.
Consider AVIKFLELL, for which the peptide exchange yield fell in the range of 50 to 75%.
As for GIVAHIQEV, the figure is 50 to 75%; as for LLLGDSALYL, 50 to 75%.
On to TLFGYSVVL, for which the peptide exchange yield lay within 50 to 75%.
As for FLTAINYLL, the figure is 50 to 75%; as for TITETTVEV, 50 to 75%.
For LLFSRLCGA, the peptide exchange yield is greater than 75%.
As for FLAVGLVDV, the figure is 50 to 75%.
For ALLERGELFV, the peptide exchange yield fell in the range of 50 to 75%.
The molecule TLLQRLTEV showed a peptide exchange yield of 50 to 75%.
As for KMVGLVVAI, the figure is 50 to 75%.
As for SQFPLPLAV, the figure is 20 to 49%.
As to ALFENTPKA, the peptide exchange yield lay in the range of 20 to 49%.
As for KLLDPQEFTL, the figure is 50 to 75%; as for YTLDIPVLFGV, greater than 75%; as for VLIDPQWVLTA, 50 to 75%.
For the molecule SVVPDVRSV, the peptide exchange yield was in the range of 20 to 49%.
As for ILAKDLFEI, the figure is greater than 75%; as for GIAGSLKTV, 50 to 75%.
The figure for TMDSVLVTV is 50 to 75%.
